From patent publication US20250051465A1

Experiments:
[1] = target: extracellular domain of human LEPR, GPI-anchored on HEK293 cells (HEK293/hLEPR-GPI) (human); experiment: FACS, HEK293/hLEPR-GPI
[2] = target: full length human LEPR on cells (human) (UniProt P48357); experiment: FACS, HEK293/Stat3-luc/hLEPR-FL
[3] = target: extracellular domain of human LEPR, GPI-anchored on HEK293 cells (HEK293/hLEPR-GPI) (human); experiment: FACS, HEK293/hLEPR-GPI, 1 µM Leptin
[4] = target: extracellular domain of human LEPR, GPI-anchored on HEK293 cells (HEK293/hLEPR-GPI) (human); experiment: FACS, HEK293/hLEPR-GPI, no added Leptin
[5] = target: Macaca fascicularis LEPR extracellular domain expressed with a C-terminal myc-myc-hexahistidine tag (mfLEPR.mmh) (Macaca fascicularis); experiment: SPR, captured mAb, 25C
Chain of Macaca fascicularis LEPR extracellular domain expressed with a C-terminal myc-myc-hexahistidine tag (mfLEPR.mmh) (Macaca fascicularis) (Q9MYL0 other isoform, or with tags, fused parts or gaps): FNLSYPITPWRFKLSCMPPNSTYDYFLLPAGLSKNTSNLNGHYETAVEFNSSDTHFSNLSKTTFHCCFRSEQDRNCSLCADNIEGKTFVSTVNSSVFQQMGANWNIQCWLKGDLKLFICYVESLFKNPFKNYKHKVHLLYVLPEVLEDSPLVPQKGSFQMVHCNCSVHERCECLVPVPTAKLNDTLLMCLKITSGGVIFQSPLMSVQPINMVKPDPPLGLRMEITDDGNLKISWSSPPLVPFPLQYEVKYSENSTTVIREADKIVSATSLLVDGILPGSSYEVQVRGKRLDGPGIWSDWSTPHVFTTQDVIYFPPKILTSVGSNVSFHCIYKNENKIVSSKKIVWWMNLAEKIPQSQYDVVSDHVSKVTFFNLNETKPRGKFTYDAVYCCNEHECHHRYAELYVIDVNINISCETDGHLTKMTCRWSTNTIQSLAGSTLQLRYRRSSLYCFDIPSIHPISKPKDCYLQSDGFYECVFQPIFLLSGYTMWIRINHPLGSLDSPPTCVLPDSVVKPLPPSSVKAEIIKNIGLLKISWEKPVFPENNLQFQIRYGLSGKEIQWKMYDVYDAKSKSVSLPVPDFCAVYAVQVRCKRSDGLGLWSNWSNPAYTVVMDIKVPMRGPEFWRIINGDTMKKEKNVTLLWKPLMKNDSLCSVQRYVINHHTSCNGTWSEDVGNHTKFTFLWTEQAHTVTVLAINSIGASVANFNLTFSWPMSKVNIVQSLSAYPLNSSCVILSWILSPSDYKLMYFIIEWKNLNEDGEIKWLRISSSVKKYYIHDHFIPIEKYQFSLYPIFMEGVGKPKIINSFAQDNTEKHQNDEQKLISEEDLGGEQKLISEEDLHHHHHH

[6] = target: extracellular domain of human LEPR, GPI-anchored on HEK293 cells (HEK293/hLEPR-GPI) (human); experiment: FACS, HEK293/hLEPR-GPI, 70 nM Ab
[7] = target: full length human LEPR on cells (human) (UniProt P48357); experiment: FACS, HEK293/Stat3-luc/hLEPR-FL, 70 nM Ab

Chain of full length human LEPR on cells (human) (P48357 22-1165): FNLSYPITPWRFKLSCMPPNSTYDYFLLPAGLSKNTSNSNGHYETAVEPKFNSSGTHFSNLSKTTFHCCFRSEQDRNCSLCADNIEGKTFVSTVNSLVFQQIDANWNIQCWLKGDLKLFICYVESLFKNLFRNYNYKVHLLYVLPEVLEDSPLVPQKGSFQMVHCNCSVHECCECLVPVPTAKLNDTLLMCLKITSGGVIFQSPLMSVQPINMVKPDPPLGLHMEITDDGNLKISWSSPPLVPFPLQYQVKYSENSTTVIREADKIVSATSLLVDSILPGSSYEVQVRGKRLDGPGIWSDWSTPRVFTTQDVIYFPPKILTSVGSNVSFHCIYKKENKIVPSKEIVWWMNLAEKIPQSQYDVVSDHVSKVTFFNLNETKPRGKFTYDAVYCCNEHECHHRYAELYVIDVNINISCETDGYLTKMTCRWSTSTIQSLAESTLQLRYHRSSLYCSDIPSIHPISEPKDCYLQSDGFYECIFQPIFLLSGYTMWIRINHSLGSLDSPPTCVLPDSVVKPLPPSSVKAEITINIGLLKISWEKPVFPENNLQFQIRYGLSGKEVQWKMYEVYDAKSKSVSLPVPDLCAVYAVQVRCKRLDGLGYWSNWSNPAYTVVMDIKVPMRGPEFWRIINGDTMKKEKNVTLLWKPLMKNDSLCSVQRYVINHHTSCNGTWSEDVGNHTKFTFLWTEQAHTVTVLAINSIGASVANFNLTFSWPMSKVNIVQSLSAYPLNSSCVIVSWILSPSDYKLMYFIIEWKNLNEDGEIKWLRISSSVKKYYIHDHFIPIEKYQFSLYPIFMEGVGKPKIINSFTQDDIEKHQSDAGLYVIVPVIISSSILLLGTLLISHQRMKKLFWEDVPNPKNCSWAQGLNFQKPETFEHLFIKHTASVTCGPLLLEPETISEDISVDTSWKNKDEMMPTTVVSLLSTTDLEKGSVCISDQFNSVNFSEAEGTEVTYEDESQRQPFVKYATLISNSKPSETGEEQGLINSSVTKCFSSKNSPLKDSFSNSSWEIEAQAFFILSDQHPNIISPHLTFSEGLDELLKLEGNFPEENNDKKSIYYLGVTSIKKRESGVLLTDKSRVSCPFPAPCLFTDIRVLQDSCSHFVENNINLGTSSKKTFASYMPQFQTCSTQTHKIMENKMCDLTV

| Binding Ratio (fold over unstained) [1] | Binding Ratio (fold over unstained) [2] | Binding Ratio (fold over unstained) [3] | Binding Ratio (fold over unstained) [4] | 100 nM mfLEP.MMH Bound (RU) [5] [RU] | Binding Ratio (fold over unstained) [6] | Binding Ratio (fold over unstained) [7] | Substance |
| --- | --- | --- | --- | --- | --- | --- | --- |
| 1 | 1 | 3 | 3 | – | – | – | Alexa Fluor-647 conjugated secondary antibody (Jackson ImmunoResearch Laboratories Inc., #109-547-003) |
| – | – | – | – | 0 | 2 | 2 | Isotype Control mAb (antibody) |
